Data from patent US20090074790.

Target: recombinant GST-Smad2 fusion protein, phosphorylated in vitro by TβR-I kinase, Q15796
Sequence (Q15796 whole entry, the tested form may be a part): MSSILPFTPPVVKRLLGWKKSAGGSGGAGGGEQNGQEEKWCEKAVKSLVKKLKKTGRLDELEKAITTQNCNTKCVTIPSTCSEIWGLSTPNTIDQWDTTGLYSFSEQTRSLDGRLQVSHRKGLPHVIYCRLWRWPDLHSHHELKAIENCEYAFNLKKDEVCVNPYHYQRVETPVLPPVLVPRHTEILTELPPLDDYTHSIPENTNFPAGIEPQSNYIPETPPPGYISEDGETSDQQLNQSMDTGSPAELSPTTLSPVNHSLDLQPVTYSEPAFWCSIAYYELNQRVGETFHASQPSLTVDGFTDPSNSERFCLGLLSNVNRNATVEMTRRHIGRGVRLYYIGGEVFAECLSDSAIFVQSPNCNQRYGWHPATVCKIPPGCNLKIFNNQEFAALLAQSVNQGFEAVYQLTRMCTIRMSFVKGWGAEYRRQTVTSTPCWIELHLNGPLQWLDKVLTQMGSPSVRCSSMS

B1: purified recombinant constitutively active TβR-I kinase (protein)
chain: CHNRTVIHHRVPNEEDPSLDRPFISEGTTLKDLIYDMTTSGSGSGLPLLVQRTIARTIVLQESIGKGRFGEVWRGKWRGEEVAVKIFSSREERSWFREAEIYQTVMLRHENILGFIAADNKDNGTWTQLWLVSDYHEHGSLFDYLNRYTVTVEGMIKLALSTASGLAHLHMEIVGTQGKPAIAHRDLKSKNILVKKNGTCCIADLGLAVRHDSATDTIDIAPNHRVGTKRYMAPEVLDDSINMKHFESFKRADIYAMGLVFWEIARRCSIGGIHEDYQLPYYDLVPSDPSVEEMRKVVCEQKLRPNIPNRWQSCEALRVMAKIMRECWYANGAARLTALRIKKTLSQLSQQEGIKM
  in vitro kinase assay, density of the pSmad2 band on Western blot: a band of approximately 58 kDa, the density of which is proportional to the amount of active enzyme
